# Source: paper PMC9691366, “Modulating the pharmacokinetic profile of Actinium-225-labeled macropa-derived radioconjugates by dual targeting of PSMA and albumin” (Theranostics, 2022)
# Experiments:
# [1] = system: LNCaP tumor-bearing SCID mice; assay type: in vivo, mouse
# Experimental: Formalin-fixed and paraffin-embedded mouse tissues were cut in 5 µm sections and immunostained with appropriate antibodies according to standard techniques as well as with standard H&E staining. Antigen retrieval was performed in citrate buffer (pH 6) for all primary antibodies: Ki-67 (clone MIB1, DAKO; dilution 1:200), γH2AX (clone JBW301, Millipore; dilution 1:2500) and PSMA (clone YPSMA-1, Abcam; dilution 1:1000). The presence or absence of necrosis and its percentage in the tumor samples were evaluated by experienced pathologist. […] The data were analyzed using Kruskal-Wallis test followed by Dunn post hoc test using GraphPad Prism version 7.05 (GraphPad Software, San Diego, CA, USA).
# [2] = system: LNCaP tumor-bearing SCID mice; experiment: Ex vivo biodistribution in LNCaP tumor-bearing SCID mice
# Excerpt: (§1) The biodistribution experiments with [^225Ac]Ac-mcp-M-alb-PSMA and [^225Ac]Ac-mcp-D-alb-PSMA were accomplished using LNCaP tumor-bearing mice. The SCID male mice (ENVIGO, Indianapolis, IN, USA) 8 weeks old were subcutaneously xenografted into the right flank with 10∙10^6 LNCaP cells (ATCC, Manassas, VA, USA) mixed with Matrigel Matrix (Corning Inc., Corning, NY, USA) at a 1:1 ratio. The tumor growth was periodically monitored by caliper-based measurements. When the tumor volume reached 200-300 mm^3 (i.e., approx. 6 weeks after the xenografting of the cells), the mice were enrolled in the biodistribution study. All experimental animals were housed in a specific-pathogen-free animal facility and all experiments with animals were performed in accordance with appropriate legal norms (Czech Law No. 246/1992) and with the approval of the Ministry of Education, Youth and Sports (MSMT-35035/2019-3) and approval of the Ethical committee of Faculty of Medicine and Dentistry, Palacky University in Olomouc. The number of animals was reduced as much as possible (n = 3-4 per group and time point) for in vivo experiments in order to strictly follow 3Rs principle.
# (§2) For the purpose of biodistribution studies, the ^225Ac-radioconjugates were diluted with saline. The diluted ^225Ac-radioconjugates were applied retro-orbitally (r.o.) to the experimental animals at a dose of 50 kBq per mouse corresponding to 10 pmol of the PSMA-inhibitor. The radioactivity application was carried out under 2% isoflurane anesthesia (FORANE, Abbott Laboratories, Abbott Park, IL, USA) to minimize animal suffering and to prevent animal motion. The mice were sacrificed by cervical dislocation 1, 4, 24, 48, 72, and 120 h (plus 168 h for [^225Ac]Ac-mcp-D-alb-PSMA) post-injection and organs of interest (blood, spleen, pancreas, stomach, intestine, kidneys, liver, heart, lungs, muscle, bone, and tumor) were collected. The organs were weighed, and their radioactivity was counted on an automatic gamma counter. The uptake of the ^225Ac-radioconjugates was expressed as a percentage of injected dose per gram of the corresponding organ (%ID/g). The area under the curve (AUC) was determined for both tested PSMA ligands from non-decay-corrected data obtained from the ex vivo biodistribution data of the tumors, kidneys, and blood.
# [3] = as above; settings: mouse, in vivo, 50 kBq per mouse; for tissue uptake at 1 h: 1 h p.i.; for tissue uptake at 4 h: 4 h p.i.; for tissue uptake at 24 h: 24 h p.i.; for tissue uptake at 48 h: 48 h p.i.; for tissue uptake at 72 h: 72 h p.i.; for tissue uptake at 120 h: 120 h p.i.
# Excerpt: as §1, §2
# [4] = non-decay corrected biodistribution data, mean ± SD
smiles,measurement,setting,value
"O=C(O)CC[C@H](NC(=O)N[C@@H](CCCCNC(=O)[C@H](Cc1ccc2ccccc2c1)NC(=O)[C@H]1CC[C@H](CNC(=O)[C@H](CCCCn2cc(COc3cc(CN4CCOCCOCCN(Cc5cccc(C(=O)O)n5)CCOCCOCC4)nc(C(=O)O)c3)nn2)NC(=O)[C@H](CCC(=O)O)NC(=O)CCCc2ccc(I)cc2)CC1)C(=O)O)C(=O)O [[^225Ac]Ac-mcp-M-alb-PSMA, metal not drawn]",Ki67 expression in tumor (cellular proliferation),[1]; compared to untreated controls,did not show any significant decrease in proliferation
same,γH2AX staining of tumor tissue (DNA damage),[1]; compared to untreated controls,significant DNA damage in tumor cells
same,H&E stain of liver tissue (necrosis),"[1]; mouse, in vivo",significant necrosis
same,"average γH2AX histoscore, kidney","[1]; mouse, in vivo",62
same,AUCTu-to-AUCBl,"[2]; mouse, in vivo",26
same,AUCTu-to-AUCKi,"[2]; mouse, in vivo",1.5
same,AUCTu-to-AUCLi,"[2]; mouse, in vivo",29
same,blood clearance: duration of excretion,"[2]; mouse, in vivo",24 h
same,maximal tumor uptake compared to counterpart without dedicated albumin binder,"[2]; mouse, in vivo",approximately four times higher
same,AUC Blood,[2]; [4],132 ± 7.2 %ID/g.h
same,AUC Kidneys,[2]; [4],2269 ± 288 %ID/g.h
same,AUC Liver,[2]; [4],119 ± 4.6 %ID/g.h
same,AUC Tumor,[2]; [4],3494 ± 194 %ID/g.h
same,tissue to tissue ratio,"[3]; male, SCID, total radioactivity",1490
same,tissue uptake at 1 h,[3]; blood uptake (AV),6.47 %ID/g
same,tissue uptake at 4 h,[3]; blood uptake (AV),4.8 %ID/g
same,tissue uptake at 24 h,[3]; blood uptake (AV),0.54 %ID/g
same,tissue uptake at 48 h,[3]; blood uptake (AV),0.08 %ID/g
same,tissue uptake at 72 h,[3]; blood uptake (AV),0.03 %ID/g
same,tissue uptake at 120 h,[3]; blood uptake (AV),0.03 %ID/g
same,tissue uptake at 1 h,[3]; femur uptake (AV),0.61 %ID/g
same,tissue uptake at 4 h,[3]; femur uptake (AV),0.62 %ID/g
same,tissue uptake at 24 h,[3]; femur uptake (AV),0.32 %ID/g
same,tissue uptake at 48 h,[3]; femur uptake (AV),0.44 %ID/g
same,tissue uptake at 72 h,[3]; femur uptake (AV),0.32 %ID/g
same,tissue uptake at 120 h,[3]; femur uptake (AV),0.43 %ID/g
same,tissue uptake at 1 h,[3]; heart uptake (AV),2.03 %ID/g
same,tissue uptake at 4 h,[3]; heart uptake (AV),1.63 %ID/g
same,tissue uptake at 24 h,[3]; heart uptake (AV),0.34 %ID/g
same,tissue uptake at 48 h,[3]; heart uptake (AV),0.22 %ID/g
same,tissue uptake at 72 h,[3]; heart uptake (AV),0.15 %ID/g
same,tissue uptake at 120 h,[3]; heart uptake (AV),0.23 %ID/g
same,tissue uptake at 1 h,[3]; intestine uptake (AV),0.6 %ID/g
same,tissue uptake at 4 h,[3]; intestine uptake (AV),0.54 %ID/g
same,tissue uptake at 24 h,[3]; intestine uptake (AV),0.81 %ID/g
same,tissue uptake at 48 h,[3]; intestine uptake (AV),0.1 %ID/g
same,tissue uptake at 72 h,[3]; intestine uptake (AV),0.12 %ID/g
same,tissue uptake at 120 h,[3]; intestine uptake (AV),0.06 %ID/g
same,tissue uptake at 1 h,[3]; kidneys uptake (AV),29.5 %ID/g
same,tissue uptake at 4 h,[3]; kidneys uptake (AV),67.9 %ID/g
same,tissue uptake at 24 h,[3]; kidneys uptake (AV),33.1 %ID/g
same,tissue uptake at 48 h,[3]; kidneys uptake (AV),15.7 %ID/g
same,tissue uptake at 72 h,[3]; kidneys uptake (AV),9.59 %ID/g
same,tissue uptake at 120 h,[3]; kidneys uptake (AV),8.82 ± 4.4 %ID/g
same,tissue uptake at 1 h,[3]; liver uptake (AV),1.44 %ID/g
same,tissue uptake at 4 h,[3]; liver uptake (AV),1.43 %ID/g
same,tissue uptake at 24 h,[3]; liver uptake (AV),1.08 %ID/g
same,tissue uptake at 48 h,[3]; liver uptake (AV),1.19 %ID/g
same,tissue uptake at 72 h,[3]; liver uptake (AV),1.08 %ID/g
same,tissue uptake at 120 h,[3]; liver uptake (AV),1.27 %ID/g
same,tissue uptake at 1 h,[3]; lung uptake (AV),6.27 %ID/g
same,tissue uptake at 4 h,[3]; lung uptake (AV),4.99 %ID/g
same,tissue uptake at 24 h,[3]; lung uptake (AV),2.19 %ID/g
same,tissue uptake at 48 h,[3]; lung uptake (AV),1.77 %ID/g
same,tissue uptake at 72 h,[3]; lung uptake (AV),1.47 %ID/g
same,tissue uptake at 120 h,[3]; lung uptake (AV),1.73 %ID/g
same,tissue uptake at 1 h,[3]; muscle uptake (AV),0.53 %ID/g
same,tissue uptake at 4 h,[3]; muscle uptake (AV),0.51 %ID/g
same,tissue uptake at 24 h,[3]; muscle uptake (AV),0.14 %ID/g
same,tissue uptake at 48 h,[3]; muscle uptake (AV),0.07 %ID/g
same,tissue uptake at 72 h,[3]; muscle uptake (AV),0.08 %ID/g
same,tissue uptake at 120 h,[3]; muscle uptake (AV),0.12 %ID/g
same,tissue uptake at 1 h,[3]; pancreas uptake (AV),0.57 %ID/g
same,tissue uptake at 4 h,[3]; pancreas uptake (AV),0.57 %ID/g
same,tissue uptake at 24 h,[3]; pancreas uptake (AV),0.26 %ID/g
same,tissue uptake at 48 h,[3]; pancreas uptake (AV),0.1 %ID/g
same,tissue uptake at 72 h,[3]; pancreas uptake (AV),0.06 %ID/g
same,tissue uptake at 120 h,[3]; pancreas uptake (AV),0.07 %ID/g
same,tissue uptake at 1 h,[3]; spleen uptake (AV),7.24 %ID/g
same,tissue uptake at 4 h,[3]; spleen uptake (AV),3.4 %ID/g
same,tissue uptake at 24 h,[3]; spleen uptake (AV),1.24 %ID/g
same,tissue uptake at 48 h,[3]; spleen uptake (AV),1.31 %ID/g
same,tissue uptake at 72 h,[3]; spleen uptake (AV),1.12 %ID/g
same,tissue uptake at 120 h,[3]; spleen uptake (AV),1.43 %ID/g
same,tissue uptake at 1 h,[3]; stomach uptake (AV),0.83 %ID/g
same,tissue uptake at 4 h,[3]; stomach uptake (AV),0.58 %ID/g
same,tissue uptake at 24 h,[3]; stomach uptake (AV),0.39 %ID/g
same,tissue uptake at 48 h,[3]; stomach uptake (AV),0.17 %ID/g
same,tissue uptake at 72 h,[3]; stomach uptake (AV),0.1 %ID/g
same,tissue uptake at 120 h,[3]; stomach uptake (AV),0.11 %ID/g
same,tissue uptake at 1 h,[3]; tumor uptake (AV),5.96 %ID/g
same,tissue uptake at 4 h,[3]; tumor uptake (AV),18 %ID/g
same,tissue uptake at 24 h,[3]; tumor uptake (AV),29.5 %ID/g
same,tissue uptake at 48 h,[3]; tumor uptake (AV),36.5 %ID/g
same,tissue uptake at 72 h,[3]; tumor uptake (AV),38.7 %ID/g
same,tissue uptake at 120 h,[3]; tumor uptake (AV),46 %ID/g
same,tissue uptake at 128 h,"[3]; tumor uptake (highest accumulation), 128 h p.i.",46 ± 7.77 %ID/g
